Measurements published in patent publication US20220325265A1, “GLUCOCEREBROSIDASE MUTANTS” (Hoffmann-la Roche Inc., priority 2019, published 2022).

Tests used:
hGCase = assay: Inhibition of hGCase using conditurol-β-epoxide (CBE), IC50 determination; assay type: biochemical, human; conditions: irreversible inhibitor conditurol-β-epoxide on the named hGCase variant; 25 nM protein, 10 min pre-incubation, 20 μM res-β-glc
Description: CBE is an irreversible inhibitor of glucocerebrosidases which covalently binds to the active site of the enzyme (Liou et al., 2006).
A stock solution of 100 mM CBE in H2Oultrapure was prepared. For IC50 determination, CBE concentrations ranging from 0.04-2500 μM were tested. Again, the final enzyme concentration was 25 nM. After adding the inhibitor, the enzyme was pre-incubated for 10 min before initializing the activity measurement by adding the substrate (20 μM).
IC50 evaluations were done in the same manner as described for IFG (see section above). The IC50 calculations were done using GraphPad Prism7 following equation 9.
To determine whether the active binding site of an enzyme is compromised or altered, IC50 values were calculated for active site inhibitor and compared. In this work, the natural occurring GCase inhibitor isofagomine (IFG) and conditurol-β-epoxide (CBE) were used. IFG is known as a reversible inhibitor, interacting with the active site of the GCase enzyme, whereas CBE is an irreversible inhibitor of GCase (Powe et al., 2006). The IC50 of an enzyme is defined as the concentration of an inhibitor, where the response, in this case the enzyme activity, is reduced by half (Kalliokoski et al., 2013). Both assays were conducted as described in section 2.5.6. The inhibitor profiles of M53T/P55T using IFG and CBE as well as the IC50 profiles of all residual mutants combined are shown in FIG. 4.
The raw data was plotted by transforming the applied IFG/CBE concentration to a logarithmic scale (x-axis, FIG. 4) and by normalizing the activity signal with highest signal of each data set to 100% (defined with apparent inhibitor concentration of 10-12 μM, equal to no inhibitor). IC50 values were calculated using GraphPad Prism7 following equation 9.

[1] = test system: H4 glioblastoma GBA-KO cells; assay: Reduction of natural substrate GlcSph in H4 GBA-KO cells (LC/MS); assay type: cell-based, human; conditions: 10 nM treatment, 48 h, vs untreated H4 GBA-KO cells
Description: FIG. 9: Reduction of the natural substrate GlcSph after treatment of H4 glioblastoma GBA-KO cells with hGCase molecules. Treatment concentration (hGCase protein): 1, 10 and 100 nM, respectively. Analysis of substrate levels after 48 h of incubation via LC/MS. H4 wt cells (GCase levels normalized to 100%) and H4 GBA-KO cells (loss of GBA gene) served as control. ^1 measured glucosylsphingosine (GlcSph) levels normalized to total protein amount. ^2 H4 glioblastoma cells with knock-out GBA gene.
Human H4 glioblastoma cells (H4 cells) were taken as human neuronal model to test purified hGCase variants in a cell-based setup. H4 wild-type cells and untreated H4 GBA-KO cells (knock-out of related GCase GBA gene) were taken as references. After seeding (40000 cells/well) and incubating them for ˜24 h, the GBA-KO cells were treated with 1, 10 and 100 nM of target protein sample and incubated for either 2 h (for uptake and GCase activity measurements) or 48 h (for substrate reduction measurements) at 37° C. with 5% CO2 and constant humidity. After cell-lysis (GCase activity buffer (table 2.6)+0.1% (w/v) Triton X-100+phosphatase (Phospho stop Roche in-house)+protease inhibitor (cOmplete EDTA-free)), the uptake of the enzymes into the cells was evaluated by measuring the hGCase concentration via AlphaLISA (section 2.3.6) as well as the activity after the uptake (section 2.3.5). Samples for substrate reduction determination were hand over to Iris Ruf (SMR, see section 2.7). Due to the loss of the GCase related GBA gene in H4 GBA-KO cells, the natural substrate glucosylsphingosine (GlcSph) accumulates. The reduction of GlcSph levels due to hGCase treatment was evaluated via LC/MS by Iris Ruf (SMR).
Finally, the cellular uptake, activity and substrate reduction in human neuronal cells were determined to test the mutants' efficacy in a more cellular context. In this work, human H4 glioblastoma wild-type cells (wt) and H4 GBA-KO cells (knock-out of GCase related GBA gene) were used as a Gaucher cell model. H4 GBA-KO cells, which accumulate the natural substrate glucosylsphingosine (GlcSph) due to the loss of the GBA gene, were treated with 1, 10 and 100 nM of hGCase molecules, respectively. Activity and protein concentration (via AlphaLISA) were measured after two hours of incubation after several media wash steps. The reduction of natural substrate GlcSph was analyzed 48 h after cell treatment via LC/MS. The activity measured after uptake into the cells normalized to measured hGCase protein levels is graphed in FIG. 8. The evaluated activities are given as percentage of hGCase activity measured in wt H4 cells, set to 100%.
To determine the enzymes' efficacies, the reduction of accumulated glucosylsphingosine (GlcSph) in H4 GBA-KO cells was investigated.

[2] = Activatability of hGCase mutants by phosphatidylserine; assay type: biochemical; conditions: 25 nM protein; for phosphatidylserine activation, fold increase of initial activity: 4 μM phosphatidylserine, 10 min pre-incubation at RT
Description: Negatively charged lipids as phosphatidylserine are known to stabilize and activate the enzyme usually in combination with Saposin C (SAP-2), since GCase is naturally interacting with the membrane of the lysosomes in vivo. For the assay, 25 nM protein and 4 μM phosphatidylserine (Avanti; 10 mM stock solution dissolved in chloroform) were tested.
After adding the lipid to the enzyme, the solution was pre-incubated for 10 min at RT before adding the substrate and initializing the enzymatic reaction. The hGCase activity without added phosphatidylserine was set to 100% relative enzyme activity. The increase in activity was expressed as X-fold the initial activity without activator.
Several physiological substances have been reported to stimulate the activity of glucocerebrosidase. GCase is naturally interacting with the membrane of the lysosomes in vivo, thus negatively charged lipids such as phosphatidylserine are known to stabilize and activate the enzyme alone or in combination with Saposin C (SAP-2) (Qi & Grabowski, 1998; Sun et al., 2002; Vaccaro et al., 1995). Thus, it is essential to preserve these properties when modifying the GCase enzyme structure. To this end, the effect of phosphatidylserine alone was evaluated as first approach. The activity levels with and without added phosphatidylserine are plotted in FIG. 6.
By translating the data into fold increase of the initial activity, a more conclusive statement can be drawn (FIG. 7).

| IC50 (hGCase) | basal activity level (no added lipid) ([2]; no phosphatidylserine) | phosphatidylserine activation, fold increase of initial activity [2] | Molecule | reduction in GlcSph levels (%) [1] | reduction in GlcSph levels (fold) [1] |
| --- | --- | --- | --- | --- | --- |
| 28 µM |  |  | K321N: Amicus single mutant hGCase R495H/K321N produced in S2 cells; Seq. Id. No. 2 (protein, listed as Homo sapiens, Amicus single mutant hGCase R495H/K321N produced in S2 cells; Id; No. 2) ARPCIPKSFGYSSVVCVCNATYCDSFDPPTFPALGTFSRYESTRSGRRMELSMGPIQANHTGTGLLLTLQPEQKFQKVKGFGGAMTDAAALNILALSPPAQNLLLKSYFSEEGIGYNIIRVPMASCDFSIRTYTYADTPDDFQLHNFSLPEEDTKLKIPLIHRALQLAQRPVSLLASPWTSPTWLKTNGAVNGKGSLKGQPGDIYHQTWARYFVKFLDAYAEHKLQFWAVTAENEPSAGLLSGYPFQCLGFTPEHQRDFIARDLGPTLANSTHHNVRLLMLDDQRLLLPHWAKVVLTDPEAAKYVHGIAVHWYLDFLAPANATLGETHRLFPNTMLFASEACVGSKFWEQSVRLGSWDRGMQYSHSIITNLLYHVVGWTDWNLALNPEGGPNWVRNFVDSPIIVDITKDTFYKQPMFYHLGHFSKFIPEGSQRVGLVASQKNDLDAVALMHPDGSAVVVVLNRSSKDVPLTIKDPAVGFLETISPGYSIHTYLWHRQ |  |  |
| 106 µM |  |  | L34Q: recombinant human β-glucocerebrosidase variant R495H/L34Q, S2 cells; Seq. Id. No. 6 (protein, listed as Homo sapiens, recombinant human β-glucocerebrosidase variant R495H/L34Q, S2 cells; Id; No. 6) ARPCIPKSFGYSSVVCVCNATYCDSFDPPTFPAQGTFSRYESTRSGRRMELSMGPIQANHTGTGLLLTLQPEQKFQKVKGFGGAMTDAAALNILALSPPAQNLLLKSYFSEEGIGYNIIRVPMASCDFSIRTYTYADTPDDFQLHNFSLPEEDTKLKIPLIHRALQLAQRPVSLLASPWTSPTWLKTNGAVNGKGSLKGQPGDIYHQTWARYFVKFLDAYAEHKLQFWAVTAENEPSAGLLSGYPFQCLGFTPEHQRDFIARDLGPTLANSTHHNVRLLMLDDQRLLLPHWAKVVLTDPEAAKYVHGIAVHWYLDFLAPAKATLGETHRLFPNTMLFASEACVGSKFWEQSVRLGSWDRGMQYSHSIITNLLYHVVGWTDWNLALNPEGGPNWVRNFVDSPIIVDITKDTFYKQPMFYHLGHFSKFIPEGSQRVGLVASQKNDLDAVALMHPDGSAVVVVLNRSSKDVPLTIKDPAVGFLETISPGYSIHTYLWHRQ |  |  |
| 35 µM |  | ~2.8 fold | K321N/H145L: Amicus double mutant hGCase R495H/K321N/H145L produced in S2 cells; Seq. Id. No. 3 (protein, listed as Homo sapiens, Amicus double mutant hGCase R495H/K321N/H145L produced in S2 cells; Id; No. 3) ARPCIPKSFGYSSVVCVCNATYCDSFDPPTFPALGTFSRYESTRSGRRMELSMGPIQANHTGTGLLLTLQPEQKFQKVKGFGGAMTDAAALNILALSPPAQNLLLKSYFSEEGIGYNIIRVPMASCDFSIRTYTYADTPDDFQLLNFSLPEEDTKLKIPLIHRALQLAQRPVSLLASPWTSPTWLKTNGAVNGKGSLKGQPGDIYHQTWARYFVKFLDAYAEHKLQFWAVTAENEPSAGLLSGYPFQCLGFTPEHQRDFIARDLGPTLANSTHHNVRLLMLDDQRLLLPHWAKVVLTDPEAAKYVHGIAVHWYLDFLAPANATLGETHRLFPNTMLFASEACVGSKFWEQSVRLGSWDRGMQYSHSIITNLLYHVVGWTDWNLALNPEGGPNWVRNFVDSPIIVDITKDTFYKQPMFYHLGHFSKFIPEGSQRVGLVASQKNDLDAVALMHPDGSAVVVVLNRSSKDVPLTIKDPAVGFLETISPGYSIHTYLWHRQ |  |  |

The remaining lines, values behind:

| Molecule | IC50 (hGCase) | basal activity level (no added lipid) ([2]; no phosphatidylserine) | phosphatidylserine activation, fold increase of initial activity [2] | reduction in GlcSph levels (%) [1] | reduction in GlcSph levels (fold) [1] |
| --- | --- | --- | --- | --- | --- |
| F31Y: recombinant human β-glucocerebrosidase variant R495H/F31Y, S2 cells; Seq. Id. No. 5 (protein, listed as Homo sapiens, recombinant human β-glucocerebrosidase variant R495H/F31Y, S2 cells; Id; No. 5) ARPCIPKSFGYSSVVCVCNATYCDSFDPPTYPALGTFSRYESTRSGRRMELSMGPIQANHTGTGLLLTLQPEQKFQKVKGFGGAMTDAAALNILALSPPAQNLLLKSYFSEEGIGYNIIRVPMASCDFSIRTYTYADTPDDFQLHNFSLPEEDTKLKIPLIHRALQLAQRPVSLLASPWTSPTWLKTNGAVNGKGSLKGQPGDIYHQTWARYFVKFLDAYAEHKLQFWAVTAENEPSAGLLSGYPFQCLGFTPEHQRDFIARDLGPTLANSTHHNVRLLMLDDQRLLLPHWAKVVLTDPEAAKYVHGIAVHWYLDFLAPAKATLGETHRLFPNTMLFASEACVGSKFWEQSVRLGSWDRGMQYSHSIITNLLYHVVGWTDWNLALNPEGGPNWVRNFVDSPIIVDITKDTFYKQPMFYHLGHFSKFIPEGSQRVGLVASQKNDLDAVALMHPDGSAVVVVLNRSSKDVPLTIKDPAVGFLETISPGYSIHTYLWHRQ | 60 ± 3 µM |  |  |  |  |
| I5N: recombinant human β-glucocerebrosidase variant R495H/I5N, S2 cells; Seq. Id. No. 4 (protein, listed as Homo sapiens, recombinant human β-glucocerebrosidase variant R495H/I5N, S2 cells; Id; No. 4) ARPCNPKSFGYSSVVCVCNATYCDSFDPPTFPALGTFSRYESTRSGRRMELSMGPIQANHTGTGLLLTLQPEQKFQKVKGFGGAMTDAAALNILALSPPAQNLLLKSYFSEEGIGYNIIRVPMASCDFSIRTYTYADTPDDFQLHNFSLPEEDTKLKIPLIHRALQLAQRPVSLLASPWTSPTWLKTNGAVNGKGSLKGQPGDIYHQTWARYFVKFLDAYAEHKLQFWAVTAENEPSAGLLSGYPFQCLGFTPEHQRDFIARDLGPTLANSTHHNVRLLMLDDQRLLLPHWAKVVLTDPEAAKYVHGIAVHWYLDFLAPAKATLGETHRLFPNTMLFASEACVGSKFWEQSVRLGSWDRGMQYSHSIITNLLYHVVGWTDWNLALNPEGGPNWVRNFVDSPIIVDITKDTFYKQPMFYHLGHFSKFIPEGSQRVGLVASQKNDLDAVALMHPDGSAVVVVLNRSSKDVPLTIKDPAVGFLETISPGYSIHTYLWHRQ |  | least basal activity level | 7.5 fold | ~75% | 4 fold |
